Reference: paper PMC12416549 (2024)

Molecular target: T1, TNFR1 (Homo sapiens, UniProt P19438)
T1 chain: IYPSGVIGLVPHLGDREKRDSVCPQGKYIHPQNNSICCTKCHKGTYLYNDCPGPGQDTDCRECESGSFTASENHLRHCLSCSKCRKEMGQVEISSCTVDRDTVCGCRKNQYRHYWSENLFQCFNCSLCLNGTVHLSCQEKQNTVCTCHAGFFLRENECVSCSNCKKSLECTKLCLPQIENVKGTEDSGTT
Assay: yeast display SC50

B1: Y50W (designed binder)
chain: SMEEEVEKAAKEYEKKKKEAIEKHLEKLKAKDKEAAERFLKELEEAAKEWAKDEAKTMSEEEAKRRAKKYKEKVLLSELSEEEQKEIKEAEEKLVRTILKYVEEAAK
- apparent Kd (screen): 7.07 nM

B2: H24V (designed binder)
chain: SMEEEVEKAAKEYEKKKKEAIEKVLEKLKAKDKEAAERFLKELEEAAKEYAKDEAKTMSEEEAKRRAKKYKEKVLLSELSEEEQKEIKEAEEKLVRTILKYVEEAAK
- apparent Kd (screen): 1.05 nM

B3: K27N (designed binder)
chain: SMEEEVEKAAKEYEKKKKEAIEKHLENLKAKDKEAAERFLKELEEAAKEYAKDEAKTMSEEEAKRRAKKYKEKVLLSELSEEEQKEIKEAEEKLVRTILKYVEEAAK
- apparent Kd (screen): 0.653 nM

B4: A35Y (designed binder)
chain: SMEEEVEKAAKEYEKKKKEAIEKHLEKLKAKDKEYAERFLKELEEAAKEYAKDEAKTMSEEEAKRRAKKYKEKVLLSELSEEEQKEIKEAEEKLVRTILKYVEEAAK
- apparent Kd (screen): 1.27 nM

B5: E92C (designed binder)
chain: SMEEEVEKAAKEYEKKKKEAIEKHLEKLKAKDKEAAERFLKELEEAAKEYAKDEAKTMSEEEAKRRAKKYKEKVLLSELSEEEQKEIKEAECKLVRTILKYVEEAAK
- apparent Kd (screen): 6.43 nM

B6: L76K (designed binder)
chain: SMEEEVEKAAKEYEKKKKEAIEKHLEKLKAKDKEAAERFLKELEEAAKEYAKDEAKTMSEEEAKRRAKKYKEKVLKSELSEEEQKEIKEAEEKLVRTILKYVEEAAK
- apparent Kd (screen): 3.3 nM

B7: R66K (designed binder)
chain: SMEEEVEKAAKEYEKKKKEAIEKHLEKLKAKDKEAAERFLKELEEAAKEYAKDEAKTMSEEEAKRKAKKYKEKVLLSELSEEEQKEIKEAEEKLVRTILKYVEEAAK
- apparent Kd (screen): 10.4 nM

B8: K27M (designed binder)
chain: SMEEEVEKAAKEYEKKKKEAIEKHLEMLKAKDKEAAERFLKELEEAAKEYAKDEAKTMSEEEAKRRAKKYKEKVLLSELSEEEQKEIKEAEEKLVRTILKYVEEAAK
- apparent Kd (screen): 1.05 nM

B9: A106W (designed binder)
chain: SMEEEVEKAAKEYEKKKKEAIEKHLEKLKAKDKEAAERFLKELEEAAKEYAKDEAKTMSEEEAKRRAKKYKEKVLLSELSEEEQKEIKEAEEKLVRTILKYVEEAWK
- apparent Kd (screen): 0.368 nM

B10: M2G (designed binder)
chain: SGEEEVEKAAKEYEKKKKEAIEKHLEKLKAKDKEAAERFLKELEEAAKEYAKDEAKTMSEEEAKRRAKKYKEKVLLSELSEEEQKEIKEAEEKLVRTILKYVEEAAK
- apparent Kd (screen): 0.446 nM

B11: E5W (designed binder)
chain: SMEEWVEKAAKEYEKKKKEAIEKHLEKLKAKDKEAAERFLKELEEAAKEYAKDEAKTMSEEEAKRRAKKYKEKVLLSELSEEEQKEIKEAEEKLVRTILKYVEEAAK
- apparent Kd (screen): 0.539 nM

B12: E83H (designed binder)
chain: SMEEEVEKAAKEYEKKKKEAIEKHLEKLKAKDKEAAERFLKELEEAAKEYAKDEAKTMSEEEAKRRAKKYKEKVLLSELSEEHQKEIKEAEEKLVRTILKYVEEAAK
- apparent Kd (screen): 1.27 nM

B13: S77C (designed binder)
chain: SMEEEVEKAAKEYEKKKKEAIEKHLEKLKAKDKEAAERFLKELEEAAKEYAKDEAKTMSEEEAKRRAKKYKEKVLLCELSEEEQKEIKEAEEKLVRTILKYVEEAAK
- apparent Kd (screen): 1.54 nM

B14: E78M (designed binder)
chain: SMEEEVEKAAKEYEKKKKEAIEKHLEKLKAKDKEAAERFLKELEEAAKEYAKDEAKTMSEEEAKRRAKKYKEKVLLSMLSEEEQKEIKEAEEKLVRTILKYVEEAAK
- apparent Kd (screen): 0.956 nM

B15: E12C (designed binder)
chain: SMEEEVEKAAKCYEKKKKEAIEKHLEKLKAKDKEAAERFLKELEEAAKEYAKDEAKTMSEEEAKRRAKKYKEKVLLSELSEEEQKEIKEAEEKLVRTILKYVEEAAK
- apparent Kd (screen): 0.956 nM

B16: L79Y (designed binder)
chain: SMEEEVEKAAKEYEKKKKEAIEKHLEKLKAKDKEAAERFLKELEEAAKEYAKDEAKTMSEEEAKRRAKKYKEKVLLSEYSEEEQKEIKEAEEKLVRTILKYVEEAAK
- apparent Kd (screen): 12.5 nM

B17: Q84N (designed binder)
chain: SMEEEVEKAAKEYEKKKKEAIEKHLEKLKAKDKEAAERFLKELEEAAKEYAKDEAKTMSEEEAKRRAKKYKEKVLLSELSEEENKEIKEAEEKLVRTILKYVEEAAK
- apparent Kd (screen): 2.48 nM

B18: E19R (designed binder)
chain: SMEEEVEKAAKEYEKKKKRAIEKHLEKLKAKDKEAAERFLKELEEAAKEYAKDEAKTMSEEEAKRRAKKYKEKVLLSELSEEEQKEIKEAEEKLVRTILKYVEEAAK
- apparent Kd (screen): 0.446 nM

B19: A55L (designed binder)
chain: SMEEEVEKAAKEYEKKKKEAIEKHLEKLKAKDKEAAERFLKELEEAAKEYAKDELKTMSEEEAKRRAKKYKEKVLLSELSEEEQKEIKEAEEKLVRTILKYVEEAAK
- apparent Kd (screen): 0.593 nM

B20: A30W (designed binder)
chain: SMEEEVEKAAKEYEKKKKEAIEKHLEKLKWKDKEAAERFLKELEEAAKEYAKDEAKTMSEEEAKRRAKKYKEKVLLSELSEEEQKEIKEAEEKLVRTILKYVEEAAK
- apparent Kd (screen): 0.593 nM

B21: D32M (designed binder)
chain: SMEEEVEKAAKEYEKKKKEAIEKHLEKLKAKMKEAAERFLKELEEAAKEYAKDEAKTMSEEEAKRRAKKYKEKVLLSELSEEEQKEIKEAEEKLVRTILKYVEEAAK
- apparent Kd (screen): 5.84 nM

B22: A67M (designed binder)
chain: SMEEEVEKAAKEYEKKKKEAIEKHLEKLKAKDKEAAERFLKELEEAAKEYAKDEAKTMSEEEAKRRMKKYKEKVLLSELSEEEQKEIKEAEEKLVRTILKYVEEAAK
- apparent Kd (screen): 7.78 nM

B23: I87G (designed binder)
chain: SMEEEVEKAAKEYEKKKKEAIEKHLEKLKAKDKEAAERFLKELEEAAKEYAKDEAKTMSEEEAKRRAKKYKEKVLLSELSEEEQKEGKEAEEKLVRTILKYVEEAAK
- apparent Kd (screen): 13.8 nM

B24: K68F (designed binder)
chain: SMEEEVEKAAKEYEKKKKEAIEKHLEKLKAKDKEAAERFLKELEEAAKEYAKDEAKTMSEEEAKRRAFKYKEKVLLSELSEEEQKEIKEAEEKLVRTILKYVEEAAK
- apparent Kd (screen): 3 nM

B25: A105M (designed binder)
chain: SMEEEVEKAAKEYEKKKKEAIEKHLEKLKAKDKEAAERFLKELEEAAKEYAKDEAKTMSEEEAKRRAKKYKEKVLLSELSEEEQKEIKEAEEKLVRTILKYVEEMAK
- apparent Kd (screen): 3 nM

B26: L79K (designed binder)
chain: SMEEEVEKAAKEYEKKKKEAIEKHLEKLKAKDKEAAERFLKELEEAAKEYAKDEAKTMSEEEAKRRAKKYKEKVLLSEKSEEEQKEIKEAEEKLVRTILKYVEEAAK
- apparent Kd (screen): 0.304 nM

B27: A55D (designed binder)
chain: SMEEEVEKAAKEYEKKKKEAIEKHLEKLKAKDKEAAERFLKELEEAAKEYAKDEDKTMSEEEAKRRAKKYKEKVLLSELSEEEQKEIKEAEEKLVRTILKYVEEAAK
- apparent Kd (screen): 12.5 nM

B28: E91K (designed binder)
chain: SMEEEVEKAAKEYEKKKKEAIEKHLEKLKAKDKEAAERFLKELEEAAKEYAKDEAKTMSEEEAKRRAKKYKEKVLLSELSEEEQKEIKEAKEKLVRTILKYVEEAAK
- apparent Kd (screen): 11.4 nM

B29: R66T (designed binder)
chain: SMEEEVEKAAKEYEKKKKEAIEKHLEKLKAKDKEAAERFLKELEEAAKEYAKDEAKTMSEEEAKRTAKKYKEKVLLSELSEEEQKEIKEAEEKLVRTILKYVEEAAK
- apparent Kd (screen): 16.7 nM

B30: V6Y (designed binder)
chain: SMEEEYEKAAKEYEKKKKEAIEKHLEKLKAKDKEAAERFLKELEEAAKEYAKDEAKTMSEEEAKRRAKKYKEKVLLSELSEEEQKEIKEAEEKLVRTILKYVEEAAK
- apparent Kd (screen): 0.446 nM

B31: A30I (designed binder)
chain: SMEEEVEKAAKEYEKKKKEAIEKHLEKLKIKDKEAAERFLKELEEAAKEYAKDEAKTMSEEEAKRRAKKYKEKVLLSELSEEEQKEIKEAEEKLVRTILKYVEEAAK
- apparent Kd (screen): 0.653 nM

B32: K107E (designed binder)
chain: SMEEEVEKAAKEYEKKKKEAIEKHLEKLKAKDKEAAERFLKELEEAAKEYAKDEAKTMSEEEAKRRAKKYKEKVLLSELSEEEQKEIKEAEEKLVRTILKYVEEAAE
- apparent Kd (screen): 1.54 nM

B33: E49D (designed binder)
chain: SMEEEVEKAAKEYEKKKKEAIEKHLEKLKAKDKEAAERFLKELEEAAKDYAKDEAKTMSEEEAKRRAKKYKEKVLLSELSEEEQKEIKEAEEKLVRTILKYVEEAAK
- apparent Kd (screen): 4.39 nM

B34: K100W (designed binder)
chain: SMEEEVEKAAKEYEKKKKEAIEKHLEKLKAKDKEAAERFLKELEEAAKEYAKDEAKTMSEEEAKRRAKKYKEKVLLSELSEEEQKEIKEAEEKLVRTILWYVEEAAK
- apparent Kd (screen): 1.05 nM

B35: E54C (designed binder)
chain: SMEEEVEKAAKEYEKKKKEAIEKHLEKLKAKDKEAAERFLKELEEAAKEYAKDCAKTMSEEEAKRRAKKYKEKVLLSELSEEEQKEIKEAEEKLVRTILKYVEEAAK
- apparent Kd (screen): 11.4 nM
